Reference: patent US20220064286A1 (Genentech, published 2022)

T1: human TIGIT protein (human, UniProt Q495A1 22-141, limits assumed)
T1 construct: Recombinant protein (Genentech) used in ELISA screening and as SPR analyte; also called TIGIT antigen
T1 sequence: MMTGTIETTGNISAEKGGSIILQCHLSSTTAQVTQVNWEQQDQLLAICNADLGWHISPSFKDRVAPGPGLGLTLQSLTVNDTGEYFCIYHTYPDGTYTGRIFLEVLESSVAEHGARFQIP

T2: human TIGIT on activated human primary T cells (human, UniProt Q495A1 22-244)
T2 construct: also called Human T cell
T2 sequence: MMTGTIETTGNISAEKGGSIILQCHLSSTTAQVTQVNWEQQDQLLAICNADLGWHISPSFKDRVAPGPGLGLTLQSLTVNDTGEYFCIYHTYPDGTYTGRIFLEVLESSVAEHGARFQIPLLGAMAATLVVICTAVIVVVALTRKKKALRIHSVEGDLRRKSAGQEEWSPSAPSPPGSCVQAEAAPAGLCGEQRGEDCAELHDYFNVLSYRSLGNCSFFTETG

T3: hTIGIT mutant E60A (human, UniProt Q495A1)
T3 sequence (TIGIT, looked up): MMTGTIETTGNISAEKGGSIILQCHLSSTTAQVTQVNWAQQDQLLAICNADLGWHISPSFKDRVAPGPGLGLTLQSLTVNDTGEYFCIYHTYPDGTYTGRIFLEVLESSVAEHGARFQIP

T4: hTIGIT mutant Q56A (human, UniProt Q495A1)
T4 sequence (TIGIT, looked up): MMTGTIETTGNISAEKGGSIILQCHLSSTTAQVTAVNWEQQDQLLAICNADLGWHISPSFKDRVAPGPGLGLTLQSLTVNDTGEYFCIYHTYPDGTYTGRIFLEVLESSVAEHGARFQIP

T5: hTIGIT mutant T117A (human, UniProt Q495A1)
T5 sequence (TIGIT, looked up): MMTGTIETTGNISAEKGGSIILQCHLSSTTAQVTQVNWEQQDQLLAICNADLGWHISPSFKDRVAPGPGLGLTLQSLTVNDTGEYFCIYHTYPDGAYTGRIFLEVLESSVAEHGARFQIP

T6: hTIGIT mutant I68A (human, UniProt Q495A1)
T6 sequence (TIGIT, looked up): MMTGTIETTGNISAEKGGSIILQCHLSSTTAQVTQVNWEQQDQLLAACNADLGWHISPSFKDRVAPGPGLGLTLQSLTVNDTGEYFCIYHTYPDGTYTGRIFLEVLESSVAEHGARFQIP

T7: hTIGIT mutant N70A (human, UniProt Q495A1)
T7 sequence (TIGIT, looked up): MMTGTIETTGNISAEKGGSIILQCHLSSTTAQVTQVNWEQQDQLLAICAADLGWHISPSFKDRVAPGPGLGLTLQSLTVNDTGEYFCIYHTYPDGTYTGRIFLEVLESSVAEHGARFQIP

T8: full-length human TIGIT on CHO cells (human, UniProt Q495A1 22-244)
T8 construct: also called CHO-hTIGIT; hu TIGIT
T8 sequence: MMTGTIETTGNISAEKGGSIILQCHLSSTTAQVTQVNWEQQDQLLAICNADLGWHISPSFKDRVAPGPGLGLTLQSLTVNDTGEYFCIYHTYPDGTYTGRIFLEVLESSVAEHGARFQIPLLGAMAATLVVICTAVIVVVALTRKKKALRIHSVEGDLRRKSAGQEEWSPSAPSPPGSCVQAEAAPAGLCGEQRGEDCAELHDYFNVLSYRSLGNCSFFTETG

T9: hTIGIT mutant L73A (human, UniProt Q495A1)
T9 sequence (TIGIT, looked up): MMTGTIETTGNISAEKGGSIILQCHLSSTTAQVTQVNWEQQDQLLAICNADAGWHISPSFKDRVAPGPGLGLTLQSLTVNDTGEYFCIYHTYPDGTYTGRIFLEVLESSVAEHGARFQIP

T10: hTIGIT mutant Y113A (human, UniProt Q495A1)
T10 sequence (TIGIT, looked up): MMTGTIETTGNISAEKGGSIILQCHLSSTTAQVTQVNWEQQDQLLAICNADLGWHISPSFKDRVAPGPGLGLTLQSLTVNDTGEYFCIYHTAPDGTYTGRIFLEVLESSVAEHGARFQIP


Legend:
[1] = biological target: T1, human TIGIT protein; experiment: SPR, monovalent affinity
[2] = biological target: cynomolgus monkey (cyno) TIGIT protein (cynomolgus monkey, UniProt A0A7N9I9V4 89-209); experiment: SPR, monovalent affinity
cynomolgus monkey (cyno) TIGIT protein, sequence (A0A7N9I9V4 entry or part of it): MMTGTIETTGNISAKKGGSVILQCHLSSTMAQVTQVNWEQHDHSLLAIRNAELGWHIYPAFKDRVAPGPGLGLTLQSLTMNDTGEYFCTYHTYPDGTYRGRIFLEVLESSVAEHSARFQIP

[3] = biological target: T11, cynomolgus TIGIT on CHO cells (cynomolgus monkey, UniProt A0A7N9I9V4 89-312); experiment: FACS blocking assay: labelled PVR-Fc (blocked ligand; text: cyPVR, scheme of FIG. 4A prints hPVR.Fc) on CHO cells expressing cyno TIGIT
T11 construct: whole, on cells; also called CHO-cyTIGIT; cyTIGIT
T11 sequence (A0A7N9I9V4 entry or part of it): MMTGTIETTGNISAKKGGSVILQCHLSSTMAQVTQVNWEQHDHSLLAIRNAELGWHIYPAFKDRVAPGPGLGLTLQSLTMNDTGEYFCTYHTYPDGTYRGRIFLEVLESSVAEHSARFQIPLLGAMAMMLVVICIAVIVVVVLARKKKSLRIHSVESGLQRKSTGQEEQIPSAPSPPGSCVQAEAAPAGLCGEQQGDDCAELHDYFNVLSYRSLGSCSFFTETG
Method: (§1) These studies were further validated in CHO-TIGIT PVR blocking experiments in which TIGIT-expressing CHO cells were incubated with labeled PVR-Fc fusion protein in the presence of anti-TIGIT antibody or an human IgG1 control (FIG. 4A).

[4] = biological target: T2, human TIGIT on activated human primary …; experiment: FACS, activated human T cells
Method: The OMT- and SD-derived anti-TIGIT clones were also tested for binding to human primary T cells by FACS analysis. Human PBMC were activated for with plate-bound anti-CD3 (5 μg/ml) and soluble anti-CD28 (2 μg/ml) for 2 days as described in Yu et al. Nature Immunology. 10: 48-57, 2009, which is incorporated herein by reference in its entirety. Cells were then washed and incubated with incubated with each anti-TIGIT antibody at the indicated concentrations and then detected via a FITC-labeled anti-hIgG antibody. Cells were also stained with anti-CD4, anti-CD8, and anti-CD25 (BD bioscience). Human CD4+(CD25+CD4+) and human CD8+(CD25+CD8+) T cells were assessed for binding by the anti-TIGIT clones by FACS. All samples were acquired on LSR-II or LSR-Fortessa instruments (BD Biosciences) and analyzed using FlowJo software (Treestar).

[5] = biological target: T1, human TIGIT protein; experiment: SPR (BIACORE), N=2
[6] = biological target: T3, hTIGIT mutant E60A; experiment: SPR (BIACORE) KD normalized to WT, N=2
[7] = biological target: T4, hTIGIT mutant Q56A; experiment: SPR (BIACORE) KD normalized to WT, N=2
[8] = biological target: T5, hTIGIT mutant T117A; experiment: SPR (BIACORE) KD normalized to WT, N=2
[9] = biological target: T6, hTIGIT mutant I68A; experiment: SPR (BIACORE) KD normalized to WT, N=2
[10] = biological target: T7, hTIGIT mutant N70A; experiment: SPR (BIACORE) KD normalized to WT, N=2
[11] = biological target: T8, full-length human TIGIT on CHO cells; experiment: FACS, CHO cells expressing TIGIT
[12] = biological target: T8, full-length human TIGIT on CHO cells; experiment: FACS, PVR-Fc on CHO-TIGIT cells; competitor PVR-Fc
Method: as §1

[13] = biological target: T9, hTIGIT mutant L73A; experiment: SPR (BIACORE), N=2
[14] = biological target: T10, hTIGIT mutant Y113A; experiment: SPR (BIACORE), N=2

Row | Binder | Kd [1] [nM] | Kd [2] [nM] | IC50 (read off the curve) [3] [nM] | EC50 [4] [nM] | Kd [5] [nM] | Binding affinity drop vs. WT [6] [fold] | Binding affinity drop vs. WT [7] [fold] | Binding affinity drop vs. WT [8] [fold] | Binding affinity drop vs. WT [9] [fold] | Binding affinity drop vs. WT [10] [fold] | EC50 [11] [nM] | IC50 [12] [nM] | Kd [13] [nM] | Kd [14] [nM]
1 | 4.1D3 (antibody, V domains shown, OMT rat-derived human antibody; also called 4.1D3.Q1) VH: QVQLQQSGPGLVKPSQTLSLTCAISGDSVSSNSAAWNWIRQSPSRGLEWLGKTYYRFKWYSDYAVSVKGRITINPDTSKNQFSLQLNSVTPEDTAVFYCTRESTTYDLLAGPFDYWGQGTLVTVSS VL: not shown |  |  | ~0.6 |  | 0.5 | 12.2 | 5.4 | 1.4 | 21 | 3.4 |  |  | 1.3 | 2.8
2 | 4.1D3.Q1E (antibody, V domains shown) VH: EVQLQQSGPGLVKPSQTLSLTCAISGDSVSSNSAAWNWIRQSPSRGLEWLGKTYYRFKWYSDYAVSVKGRITINPDTSKNQFSLQLNSVTPEDTAVFYCTRESTTYDLLAGPFDYWGQGTLVTVSS VL: not shown | 0.56 | 3.2 |  | 1.36 |  |  |  |  |  |  | 1.04 | 0.29 |  | 

Other lines, results leading:

Row | Kd [1] [nM] | Kd [2] [nM] | IC50 (read off the curve) [3] [nM] | EC50 [4] [nM] | Kd [5] [nM] | Binding affinity drop vs. WT [6] [fold] | Binding affinity drop vs. WT [7] [fold] | Binding affinity drop vs. WT [8] [fold] | Binding affinity drop vs. WT [9] [fold] | Binding affinity drop vs. WT [10] [fold] | EC50 [11] [nM] | IC50 [12] [nM] | Kd [13] [nM] | Kd [14] [nM] | Binder
3 | 2.97 | 2.01 | ~0.3 | 2.63 | 1.8 | 2.7 | 13.2 | 1.8 | 2.7 | 5.9 | 3.04 | 0.38 |  |  | 7.4A3.C96S.Q1E (antibody, V domains shown, also called 7.4A3.Q1E.C96S) VH: EVQLVQSGSDLKKPGASVRVSCKASGYTFTSYPMNWVRQAPGHGLEWMGWINTNTGNPTYVQGFTGRFVFSLDTSVNTAYLQISSLKAEDTAVYFCARTGGHTYDSYAFDVWGQGTMVTVSS VL: DIQLTQSPTFLSASVGDRVTITCRASQVISSSLAWYQQNPGKAPKLLIYAASTLQSGVPSRFSGSGSGTEFTLTISSLQPEDFVTYYCQHLHGYPSNFGQGTKVEIK
4 |  |  |  |  |  | 0.9 | 0.7 | 0.8 | 0.4 | 0.5 |  |  | > 500 | 55.5 | 10A7 (antibody, V domains shown) VH: EVQLVESGGGLTQPGKSLKLSCEASGFTFSSFTMHWVRQSPGKGLEWVAFIRSGSGIVFYADAVRGRFTISRDNAKNLLFLQMNDLKSEDTAMYYCARRPLGHNTFDSWGQGTLVTVSS VL: DIVMTQSPSSLAVSPGEKVTMTCKSSQSLYYSGVKENLLAWYQQKPGQSPKLLIYYASIRFTGVPDRFTGSGSGTDYTLTITSVQAEDMGQYFCQQGINNPLTFGDGTKLEIKR
